Experimental data: patent US20210069342A1 (LEGOCHEM BIOSCIENCES, published 2021)

Tests used:
[1] = biological target: T1, human ROR1 expressed on the cell surface (human, UniProt Q01973 30-937); assay: flow cytometry on Kasumi-2 cells (ALL), C2E3 IgG, FITC anti-human Fc detection
T1 construct: whole, on cells; also called cell surface-expressed ROR1 antigen; ROR1 on JeKo-1, Mino, CHO-human ROR1, MC38-human ROR1 and other cancer cell lines
Protocol: (§1) FACS analysis (FACSCalibur, BD Biosciences) was used to analyze the binding of the anti-ROR1 antibody of the present invention to ROR1 in the above cell lines.
(§2) Specifically, the respective cell lines were dissociated and washed in PBS, then the numbers of cells were counted and adjusted to 2×10⁵ cells/200 PBS. Then, they were treated with 10 /mL of the antibody of clone name C2E3 of the ROR1 monoclonal antibodies prepared in Embodiment 3, and reacted for 1 hour at 4° C. After the reaction, the cells were washed in PBS, then FITC-marked constant region (Fc) specific antibody (Goat anti-human IgG FITC conjugate, Fc specific, Sigma, F9512, concentration 20 mg/ml) was suspended in 2 /1×10⁵ cells/200 PBS and reacted for 1 hour at 4° C. After reacting, the cells were washed with PBS and analyzed with the FACSCalibur equipment. The negative control was only treated with FITC-marked constant region (Fc) specific antibody. To compare the degree of ROR1 expression among the respective cancer cell lines, the quotient of dividing the shifted readings for the experimental group treated with the ROR1 monoclonal antibody (C2E3) of the present invention by the shifted readings for the control group (MFI Ratio: MFI of anti-ROR1/MFI or 2nd Ab) is indicated.

[2] = biological target: T1, human ROR1 expressed on the cell surface; assay: flow cytometry on H1437 cells (lung cancer), C2E3 IgG, FITC anti-human Fc detection
Protocol: as §1, §2

[3] = biological target: T1, human ROR1 expressed on the cell surface; assay: flow cytometry on BT20 cells (breast cancer), C2E3 IgG, FITC anti-human Fc detection
Protocol: as §1, §2

[4] = biological target: T1, human ROR1 expressed on the cell surface; assay: flow cytometry on Calu-6 cells (lung cancer), C2E3 IgG, FITC anti-human Fc detection
Protocol: as §1, §2

[5] = biological target: T1, human ROR1 expressed on the cell surface; assay: flow cytometry on DLD-1 cells (colon cancer), C2E3 IgG, FITC anti-human Fc detection
Protocol: as §1, §2

[6] = biological target: T1, human ROR1 expressed on the cell surface; assay: flow cytometry on BT474 cells (breast cancer), C2E3 IgG, FITC anti-human Fc detection
Protocol: as §1, §2

[7] = biological target: T1, human ROR1 expressed on the cell surface; assay: flow cytometry on HCC1187 cells (breast cancer), C2E3 IgG, FITC anti-human Fc detection
Protocol: as §1, §2

[8] = biological target: T1, human ROR1 expressed on the cell surface; assay: flow cytometry on HCC1806 cells (breast cancer), C2E3 IgG, FITC anti-human Fc detection
Protocol: as §1, §2

[9] = biological target: T1, human ROR1 expressed on the cell surface; assay: flow cytometry on NCI-H1975 cells (lung cancer), C2E3 IgG, FITC anti-human Fc detection
Protocol: as §1, §2

[10] = biological target: T1, human ROR1 expressed on the cell surface; assay: flow cytometry on SNU-16 cells (gastric cancer), C2E3 IgG, FITC anti-human Fc detection
Protocol: as §1, §2

[11] = biological target: T1, human ROR1 expressed on the cell surface; assay: flow cytometry on SNU-1750 cells (gastric cancer), C2E3 IgG, FITC anti-human Fc detection
Protocol: as §1, §2

[12] = biological target: T1, human ROR1 expressed on the cell surface; assay: flow cytometry on MDA-MB-231 cells (breast cancer), C2E3 IgG, FITC anti-human Fc detection
Protocol: as §1, §2

[13] = biological target: T1, human ROR1 expressed on the cell surface; assay: flow cytometry on MCF7 cells (breast cancer; the text calls MCF7 a cell line which does not express ROR1), C2E3 IgG, FITC anti-human Fc detection
Protocol: as §1, §2

[14] = biological target: T1, human ROR1 expressed on the cell surface; assay: flow cytometry on MC38-human ROR1 cells, IgG titrated, FITC anti-human Fc detection, MFI ratio to 2nd Ab alone; log axis whose first tick is printed 0
Text: For this experiment, using cell lines (FIG. 5 and FIG. 7, respectively) transiently (CHO-human ROR1, CHO-human ROR2, CHO-mouse ROR1) or stably (MC38-human ROR1) transfected with ROR1 gene to achieve artificial over-expression of ROR1 protein, an ROR1-expressing cell line (JeKo-1, Mino) (FIG. 6), a non ROR1-expressing cell line (MCF7) (FIG. 6) and a FACSCalibur (BD Biosciences) device was used to measure the degree to which anti-ROR1 antibody and ROR1 were bound, as follows. […] JeKo-1, Mino, CHO-human ROR1, CHO-mouse ROR1 and MC38-human ROR1 are all cell lines which express human ROR1 or mouse ROR1.
Specifically, after dissociating each cell line and washing in PBS, the number of cells was counted and adjusted to 2×10⁵ cells/200 PBS. Then the respective ROR1 monoclonal antibodies prepared in Embodiment 3 were diluted 5 times from 10 /mL or 10 /mL, then reacted for 1 hour at 4° C. After the reaction, the cells were washed in PBS, then FITC-marked constant region (Fc) specific antibody (Goat anti-human IgG FITC conjugate, Fc specific, Sigma, F9512, concentration 20 mg/ml) was suspended in 2 /1×10⁵ cells/200 PBS and reacted for 1 hour at 4° C. As for identification of the degree of expression of the transiently over-expressed human ROR1, human ROR2 and mouse ROR1, a commercially available FACS analysis antibody (anti-ROR1: R&D Systems, FAB 2000G, anti-ROR2: R&D, FAB20641P) was used. After reacting the cells were washed in PBS and analyzed using a FACSCalibur device. The negative control (2nd Ab) was only treated with FITC-marked constant region (Fc) specific antibody. The shifted readings for the respective experimental groups treated with ROR1 monoclonal antibody were compared against the shifted reading for the control group (MFI Ratio: MFI of anti-ROR1/MFI of 2nd Ab).

T1 sequence (Q01973 30-937): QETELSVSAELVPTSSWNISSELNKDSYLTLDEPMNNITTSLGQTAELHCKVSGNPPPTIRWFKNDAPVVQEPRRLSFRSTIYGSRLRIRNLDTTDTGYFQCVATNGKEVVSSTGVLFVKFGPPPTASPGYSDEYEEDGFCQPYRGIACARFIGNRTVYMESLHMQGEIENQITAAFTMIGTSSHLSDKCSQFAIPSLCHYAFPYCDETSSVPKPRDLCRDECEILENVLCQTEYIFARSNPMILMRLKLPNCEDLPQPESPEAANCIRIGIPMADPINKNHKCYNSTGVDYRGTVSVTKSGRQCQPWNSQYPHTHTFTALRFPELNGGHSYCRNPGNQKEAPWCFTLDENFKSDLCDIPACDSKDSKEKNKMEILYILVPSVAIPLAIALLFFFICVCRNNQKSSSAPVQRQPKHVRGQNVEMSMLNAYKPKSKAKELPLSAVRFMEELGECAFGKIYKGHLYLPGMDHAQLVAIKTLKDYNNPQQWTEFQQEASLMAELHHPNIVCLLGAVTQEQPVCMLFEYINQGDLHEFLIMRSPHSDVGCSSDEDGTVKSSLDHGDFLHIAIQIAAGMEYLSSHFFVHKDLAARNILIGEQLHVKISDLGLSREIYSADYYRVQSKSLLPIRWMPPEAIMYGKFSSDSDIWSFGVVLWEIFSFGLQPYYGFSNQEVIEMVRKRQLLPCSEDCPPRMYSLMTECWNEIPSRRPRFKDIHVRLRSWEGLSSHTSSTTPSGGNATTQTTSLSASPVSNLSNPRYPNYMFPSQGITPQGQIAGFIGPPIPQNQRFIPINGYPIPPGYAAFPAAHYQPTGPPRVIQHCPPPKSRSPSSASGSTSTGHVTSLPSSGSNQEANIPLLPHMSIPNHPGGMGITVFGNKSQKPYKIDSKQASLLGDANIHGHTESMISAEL

Mean Fold Ratio (MFI of anti-ROR1 / MFI of 2nd Ab) [1]: 11.5
Mean Fold Ratio (MFI of anti-ROR1 / MFI of 2nd Ab) [2]: 4.1
Mean Fold Ratio (MFI of anti-ROR1 / MFI of 2nd Ab) [3]: 3
Mean Fold Ratio (MFI of anti-ROR1 / MFI of 2nd Ab) [4]: 3.3
Mean Fold Ratio (MFI of anti-ROR1 / MFI of 2nd Ab) [5]: 17.6
Mean Fold Ratio (MFI of anti-ROR1 / MFI of 2nd Ab) [6]: 1.7
Mean Fold Ratio (MFI of anti-ROR1 / MFI of 2nd Ab) [7]: 9.3
Mean Fold Ratio (MFI of anti-ROR1 / MFI of 2nd Ab) [8]: 2.3
Mean Fold Ratio (MFI of anti-ROR1 / MFI of 2nd Ab) [9]: 4.2
Mean Fold Ratio (MFI of anti-ROR1 / MFI of 2nd Ab) [10]: 2.4
Mean Fold Ratio (MFI of anti-ROR1 / MFI of 2nd Ab) [11]: 3.9
Mean Fold Ratio (MFI of anti-ROR1 / MFI of 2nd Ab) [12]: 8.8
Mean Fold Ratio (MFI of anti-ROR1 / MFI of 2nd Ab) [13]: 1.1
EC50 (read off the curve) [14]: ~0.1 µg/mL
B1: anti-ROR1 IgG antibody C2E3 (antibody, V domains shown)
VH: EVQLLESGGGLVQPGGSLRLSCAASGFTFSNYAMSWVRQAPGKGLEWVSSISHNSGSTYYADSVKGRFTISRDNSKNTLYLQMNSLRAEDTAVYYCAKFISARKSLGRSYSNGMDVWGQGTLVTVSS
VL: QSVLTQPPSASGTPGQRVTISCTGSSSNIGSNDVTWYQQLPGTAPKLLIYADSKRPSGVPDRFSGSKSGTSASLAISGLRSEDEADYYCGTWDYSLSGYVFGGGTKLTVLG
notes: Full IgG form (human IgG1 constant region, lambda light chain), expressed in CHO-S cells
